Results taken from patent US20090092602A1 (published 2009).
Each block holds one binder with its values, some of them ahead of it.

Key:
[1] = molecular target: T1, lipidated recombinant human tissue factor (Innovin) (human, UniProt P13726 33-295, limits assumed); assay: cell-based or functional assay
[2] = molecular target: T1, lipidated recombinant human tissue …; assay: cell-based or functional assay; remark: listed apart in the source
[3] = molecular target: T2, recombinant human tissue factor (human, UniProt P13726 33-251, limits assumed); assay: SPR (BIAcore), recombinant human TF immobilized on CM5 chip, antibody 0.125-1 nM; apparent Ka
T2 construct: also called TF; human TF
Method: (§1) The affinity of humanized anti-TF antibody for TF was determined by surface plasmon resonance (BIAcore from Pharmacia Biosensor) with recombinant human tissue factor covalently immobilized on a CM5 sensor chip.

[4] = molecular target: T2, recombinant human tissue factor; assay: SPR (BIAcore), recombinant human TF immobilized on CM5 chip, antibody 0.125-1 nM; apparent Kd
Method: as §1

B2: hFAT (humanized IgG Four Anti-Tissue Factor antibody) (antibody)
heavy: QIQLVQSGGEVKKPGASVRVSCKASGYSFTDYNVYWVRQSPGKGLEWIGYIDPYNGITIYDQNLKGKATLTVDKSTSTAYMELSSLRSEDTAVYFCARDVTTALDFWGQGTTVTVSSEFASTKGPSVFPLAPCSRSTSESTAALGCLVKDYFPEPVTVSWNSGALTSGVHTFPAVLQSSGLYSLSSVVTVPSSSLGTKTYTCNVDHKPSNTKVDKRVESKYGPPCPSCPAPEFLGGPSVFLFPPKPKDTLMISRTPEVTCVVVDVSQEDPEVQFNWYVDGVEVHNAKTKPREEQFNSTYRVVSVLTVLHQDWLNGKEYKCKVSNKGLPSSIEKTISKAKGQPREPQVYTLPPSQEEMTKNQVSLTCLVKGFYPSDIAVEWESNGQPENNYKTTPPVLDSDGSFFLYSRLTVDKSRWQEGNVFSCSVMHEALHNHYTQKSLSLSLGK
light: DIQMTQSPASLSASVGDRVTITCLASQTIDTWLAWYLQKPGKSPQLLIYAATNLADGVPSRFSGSGSGTDFSFTISSLQPEDFATYYCQQVYSSPFTFGQGTKLEIKRTVAAPSVFIFPPSDEQLKSGTASVVCLLNNFYPREAKVQWKVDNALQSGNSQESVTEQDSKDSTYSLSSTLTLSKADYEKHKVYACEVTHQGLSSPVTKSFNRGEC
notes: also called humanized cH36-IgG4; HC08 + LC09 IgG4 kappa
- inhibition of TF function in PT assay at above 12.9 nM antibody [1]: ~95%
- PT Time (in seconds) at 12.9 nM antibody (12.2 s at 0 nM) [2]: 20.5 s
- PT Time (in seconds) at 25.8 nM antibody (12.2 s at 0 nM) [2]: 41.7 s
- PT Time (in seconds) at 51.6 nM antibody (12.2 s at 0 nM) [2]: 94.8 s
- Ka [3]: 2.99e+09 M⁻¹
- Kd [4]: 0.335 nM

B3: cH36 chimeric anti-tissue factor antibody (antibody, human IgG4, V domains shown)
VH: EIQLQQSGPELVKPGASVQVSCKTSGYSFTDYNVYWVRQSHGKSLEWIGYIDPYNGITIYDQNFKGKATLTVDKSSTTAFMHLNSLTSDDSAVYFCARDVTTALDFWGQGTTLTVSS
VL: DIQMTQSPASQSASLGESVTITCLASQTIDTWLAWYQQKPGKSPQLLIYAATNLADGVPSRFSGSGSGTKFSFKISSLQAEDFVNYYCQQVYSSPFTFGAGTKLELK
notes: Mouse-human chimera; also called Sunol-cH36; chimeric H36
- inhibition of TF function in PT assay at above 12.9 nM antibody [1]: ~95%
- PT Time (in seconds) at 12.9 nM antibody (12.2 s at 0 nM) [2]: 19.8 s
- PT Time (in seconds) at 25.8 nM antibody (12.2 s at 0 nM) [2]: 40 s
- PT Time (in seconds) at 51.6 nM antibody (12.2 s at 0 nM) [2]: 101 s
- Ka [3]: 7.94e+09 M⁻¹
- Kd [4]: 0.126 nM

Next, values leading:

- inhibition of TF function in PT assay at above 12.9 nM antibody [1]: ~95%
- PT Time (in seconds) at 12.9 nM antibody (12.2 s at 0 nM) [2]: 18.9 s
- PT Time (in seconds) at 25.8 nM antibody (12.2 s at 0 nM) [2]: 33.7 s
- PT Time (in seconds) at 51.6 nM antibody (12.2 s at 0 nM) [2]: 82.1 s
B1: hOAT (humanized IgG One Anti-Tissue Factor antibody) (antibody)
heavy: not shown
light: B2 light

- Ka [3]: 1.56e+10 M⁻¹
- Kd [4]: 0.064 nM
B4: H36.D2.B7 murine anti-tissue factor monoclonal antibody (antibody, mouse IgG2a, V domains shown)
VH: B3 VH
VL: B3 VL
